Data reported in patent US11904004B2, “Anti-CD277 antibodies” (INSTITUT NATIONAL DE LA SANTE ET DE LA RECHERCHE MEDICALE …, priority 2010, dated 2024).
“And” between values parts separate entries of the source, which are not always exact repeats. Equal values may be shown once.

Tests used:
Type in all cases: cell-based, human
monocytes [1] = experiment: Costimulatory molecules expression on monocytes, flow cytometry
Protocol: (§1) Blood samples were obtained from 5 healthy volunteers enrolled among the staff members, after informed consent. Monocytes were separated from peripheral blood mononuclear cells, and isolated using the MACS CD14 isolation kit (Miltenyi Biotech, Auburn, Calif. USA). Monocytes were cultured for 5 days with 200 ng/ml of recombinant human GM-CSF and 10 ng/ml recombinant human IL-4 (Schering-Plough Research Institute). These cells were termed immature dendritic cells (iDC). To achieve the stimulation, monocytes and iDC were cultured with 10 ng/ml of LPS, ligand for TLR4, 30 μg/ml of 8848 (Sigma-Aldrich, Milano, Italy), ligand for TLR7/8 and with […] of poly (I:C) (Sigma-Aldrich), ligand for TLR3, and were harvested after 48 h. The cells were cultured in RPMI 1640 supplemented with 10% heat-inactivated FCS, 5 mM L-glutamine and 50 IU/ml penicillin-streptomycin (from here on referred to as complete medium).
Monocytes and iDCs before and after stimulation were analysed by imunofluorescence flow cytometry (FACScalibur Becton Dickinson, Milano, Italy) to verify their activation state. To this end, mAb specific for CD80, CD86, HLA-DR, CD1a, CD14 (BD Becton Dickinson), BT3 (clone 20.1, IgG1) and BT3 Fab2 were previously selected, purified and characterised (Bensussan and Olive, 2005, Compte et al., 2004) or irrelevant molecules (anti-CD19, Becton Dickinson, and anti-CD31, clone Moon-1, provided by F. Malavasi, both IgG1) were used. All the available anti-BT3 mAbs are unable to discriminate among the three members of this family (BT3.1, BT3.2, or BT3.3), probably due to their high sequence homology (Compte et al., 2004, Bensussan and Olive, 2005). As further control, to block the possible effect of trace amounts of endotoxin, polymyxin B (10 μg/ml, Sigma-Aldrich) was added to the anti-BT3 mAb 20.1 before adding the cells.

[2] = test system: immature dendritic cells (iDC); experiment: Apoptosis detection (Annexin V), survival of iDC; conditions: plastic-coated mAb or GM-CSF, 72-h culture, representative value and range of five experiments, listed as anti-BT3 mAb
Protocol: as §1
(§2) Monocytes and iDC were cultured on plastic coated with anti-BT3 mAb (clone 20.1) or with isotype-matched irrelevant mAb. As control, the cells were stimulated with 20 ng/ml recombinant human GM-CSF (Schering-Plough Research Institute). After three days, cells were harvested, stained with Annexin V-FITC (Bender MedSystems, Wien, Austria) and analysed by flow cytometry.

Vγ9Vδ2 T cells = experiment: Stimulation and expansion assay of Vγ9Vδ2 T cells from PBMC
Protocol: P815 (mouse mastocytoma cell line), K562 (chronic myeloid leukaemia cell line), Raji and Daudi (Burkitt lymphoma cell lines) were cultured in RPMI 1640 medium (Invitrogen) and 10% foetal calf serum (FCS) (Eurobio). The PBMC from healthy donors were distributed at 106/ml in 24-well culture plates at 37° C. in 5% CO2 in RPMI 1640 medium and 10% FCS. Polyclonal Vγ9Vδ2 T cells were specifically expanded with 3 μmol/l of Phosphostim (BrHPP molecule, Innate Pharma, Marseille, France) and 100 U/ml IL-2 (Chiron, Basel, Switzerland) for 12 days. Phosphostim was added once at the onset of the culture. Every 2 days, one-half of the culture medium volume was replaced with fresh medium containing 100 U/ml IL-2.
PBMC were plated and stimulated as described in the paragraph: cell lines and expansion of γδ T cells, except cells were stimulated with anti-CD277 mAbs (10 μg/ml); or control isotypes (10 μg/ml); and with or without BrHPP at different concentrations. […] Percentages of Vγ9Vδ2 were measured the first day and the last day of culture as described above. Expanded γδ T cells effectors were stimulated with or without different doses of BrHPP added in anti-CD277 mAbs at 10 μg/ml; or with OKT3 (4 ng/ml) associated with anti-BT3 19.5 mAb in different concentrations. Activation of degranulation was measured by CD107 labelling assay as described above.

monocytes [3] = experiment: Apoptosis detection (Annexin V), survival of monocytes; conditions: both monocytes and iDC; data not shown
Protocol: as §1, §2

CD4+ T cells = experiment: AKT and ERK phosphorylation, phosphoflow
Protocol: Human CD4^+ T cells were purified by negative selection from PBMCs using magnetic beads (MILTENYI BIOTEC®) according to the manufacturer's protocol. CD4 T cells were routinely more than 97% pure. Cells were incubated 24 hours in RPMI 1640 10% FBS at 37° C.
CD4^+ T cells were washed and stimulated at different times (2, 5, 10 and 30 minutes) with aAPC at a ratio of 1:3 (cells to beads) comprised of magnetic beads (DYNABEADS® M-450 Epoxy, Dynal Biotech) were coated with the following mAbs: anti-CD3 (OKT3), anti-human CD28 (CD28.2), and/or various concentrations of anti-human CD277 (CD277. 20.1 clone) or isotype control IgG1. These aAPCs were coated with suboptimal anti-CD3 Ab (5%), suboptimal levels of anti-CD28 Ab (10%), and either IgG1 Ab (CD3/CD28/IgG1), anti-CD277.20.1 Ab (CD3/CD28/CD277.20.1+IgG1), constituting the remaining 85% of protein added to the bead. The amount of protein was kept constant at […] by the addition of control IgG1. We examined the effect of mAbs CD277 clones engagement on AKT and ERK phosphorylation in CD4+T cells by PHOSPHOFLOW® proteomic method, which uses state-specific antibodies to detect target phosphoproteins by fluorescence-activated cell sorting (FACS). We assessed the activity of the signalling pathways after exposure of the cells to beads stimulations. We apply a sandwich-labeling method, which involves the application of a biotin-conjugated secondary antibody followed by detection with fluorescently conjugated streptavidin. […] Cells were permeabilized, fixed and analyzed after intracellular staining of the target phosphproteins (AKT and ERK) by the use of CYTOFIX/CYTOPERM® KIT and perm/wash buffer (BD Biosciences).

iDC = experiment: Costimulatory molecules expression on iDC, flow cytometry; conditions: coated mAb
Protocol: as §1
Monocytes and iDCs before and after stimulation were analysed by imunofluorescence flow cytometry (FACScalibur Becton Dickinson, Milano, Italy) to verify their activation state. […]

[4] = antibody-coated beads, anti-CD3 plus anti-CD277
[5] = with anti-CD3 plus anti-CD28, 2, 5, 10 and 30 minutes, dose and time dependent

B1: mAb 20.1: murine anti-CD277 antibody obtainable from the hybridoma CNCM I-4402; agonist (antibody, V domains shown)
VH: QVQLQQSGAELVKPGASVKLSCKASGYTFTRYYLYWVKQRPGQGLEWIGEINPNNGGTKFNEKFKSKATLTVDKSSRTTYIQLSSLTSEDSAVYYCSREDDYDGTPDAMDYWGQGTAVTVSS
VL: DIQMNQSPSSLSASLGDTITITCHASQNINLWLSWYQQRPGNIPKLLIYRASNLHTGVPSRFSGSGSATGFTLTISSLQPEDIATYYCQQGHSYPYTFGGGTKLDIK
- CD80 and HLA-DR molecules at the monocyte surface (monocytes [1]; coated mAb): up-regulation
- cell surface costimulatory molecule CD86 on monocytes (monocytes [1]; coated mAb, 24 h stimulation): up-regulation
- activating effect in the presence of polymyxin B (monocytes [1]; polymyxin B 10 μg/ml): maintained
- cellular activation with non-coated (soluble) mAb (monocytes [1]; soluble mAb, no cross-linking, data not shown): no effect
- healthy-vital (surviving) iDC [2]: 56.75% and 53.13-60.71%
- proliferation of Vγ9Vδ2 cells (CFSE) (Vγ9Vδ2 T cells; PBMC + IL-2): associated with the proliferation
- expansion of Vγ9Vδ2 T cells (Vγ9Vδ2 T cells; PBMC + IL-2, 15 days of culture): expanded
- lowest anti-BT3 mAb dilution able to promote a good survival capability (monocytes [3]): 10 µg/mL
- phosphorylation of AKT (CD4+ T cells; [4]): induced the phosphorylation
- phosphorylation of ERK (CD4+ T cells; [4]): induced the phosphorylation
- phosphorylation of AKT induced by CD3+CD28 stimulation (CD4+ T cells; [5]): strongly up regulated
- phosphorylation of ERK induced by CD3+CD28 stimulation (CD4+ T cells; [5]): strongly up regulated
- expression of CD80, CD86 and HLA-DR on iDC (iDC): increased expression
